Results as given in article PMC2891668 (Molecular cancer therapeutics, 2009).

Molecular target: the molecule itself
Assay: crystal structure

B1: NM23-H2 R88A mutant (enzyme, human)
chain: ANLERTFIAIKPDGVQRGLVGEIIKRFEQKGFRLVAMKFLRASEEHLKQHYIDLKDRPFFPGLVKYMNSGPVVAMVWEGLNVVKTGAVMLGETNPADSKPGTIRGDFCIQVGRNIIHGSDSVKSAEKEISLWFKPEELVDYKSCAHDWVYE
stoichiometry N: 6
